Experimental data as given in the supplement of paper PMC11246515.
± gives the standard deviation of the averaged measurements.

Test: total protein half-life in vivo (active degradation + dilution); higher = more stable protein
[1] = E. coli NCM3722 delta-clpP delta-lon delta-hslV, growth: N-lim chemostat, doubling time 6 h
[2] = E. coli NCM3722 delta-clpP, growth: N-lim chemostat, doubling time 6 h
[3] = E. coli NCM3722 delta-hslV, growth: N-lim chemostat, doubling time 6 h
[4] = E. coli NCM3722 delta-lon, growth: N-lim chemostat, doubling time 6 h
[5] = E. coli NCM3722 delta-smpB, growth: N-lim chemostat, doubling time 6 h
[6] = wild type E. coli NCM3722, growth: C-lim chemostat, doubling time 3 h
[7] = wild type E. coli NCM3722, growth: C-lim chemostat, doubling time 6 h
[8] = wild type E. coli NCM3722, growth: C-lim chemostat, doubling time 12 h
[9] = wild type E. coli NCM3722, growth: N-lim chemostat, doubling time 6 h
[10] = wild type E. coli NCM3722, growth: P-lim chemostat, doubling time 6 h
[11] = wild type E. coli NCM3722, growth: P-lim chemostat, doubling time 12 h
[12] = wild type E. coli NCM3722, growth: N-lim chemostat, doubling time 12 h

Row | Sequence | total protein half-life in vivo [1] | total protein half-life in vivo [2] | total protein half-life in vivo [3] | total protein half-life in vivo [4] | total protein half-life in vivo [5] | total protein half-life in vivo [6] | total protein half-life in vivo [7] | total protein half-life in vivo [8] | total protein half-life in vivo [9] | total protein half-life in vivo [10] | total protein half-life in vivo [11] | total protein half-life in vivo [12]
1 | MSTIEERVKKIIGEQLGVKQEEVTNNASFVEDLGADSLDTVELVMALEEEFDTEIPDEEAEKITTVQAAIDYINGHQA [P0A6A8] | 7.12 ± 0.32 h | 5.957 ± 0.032 h | 5.79 ± 0.28 h | 7.19 ± 0.17 h | 4.78 ± 1.6 h | 3.14 ± 0.069 h | 4.95 ± 1.3 h | 8.88 ± 0.96 h | 4 ± 0.13 h | 5 ± 1.2 h | 10.8 ± 0.47 h | –
2 | MSFSVQETLFSLLQHNAISGHENAVADVMLCEFRRQAKEVWRDRLGNVVARYGSDKPDALRLMIFAHMDEVGFMVRKIEPSGFLRFERVGGPAQVTMAGSIVTLTGDKGPVMGCIGIKSYHFAKGDERTQSPSVDKLWIDIGAKDKDDAIRMGIQVGTPVTLYNPPQLLANDLVCSKALDDRLGCTALLGVADAISTMELDIAVYLVASVQEEFNIRGIVPVLRRVKPDLAIGIDITPSCDTPDLHDYSEVRINQGVGITCLNYHGRGTLAGLITPPRLIRMLEQTALEHNIPVQREVAPGVITETGYIQVEQDGIPCASLSIPCRYTHSPAEVASLRDLTDCIRLLTALAGMSAAHFPVEPDSGTTQEAHPL | > 8 h | – | – | – | – | 3.05 ± 0.28 h | 6.24 ± 0.29 h | 10.9 ± 0.36 h | – | – | 10.2 h | –
3 | MESIQPWIEKFIKQAQQQRSQSTKDYPTSYRNLRVKLSFGYGNFTSIPWFAFLGEGQEASNGIYPVILYYKDFDELVLAYGISDTNEPHAQWQFSSDIPKTIAEYFQATSGVYPKKYGQSYYACSQKVSQGIDYTRFASMLDNIINDYKLIFNSGKSVIPPMSKTESYCLEDALNDLFIPETTIETILKRLTIKKNIILQGPPGVGKTFVARRLAYLLTGEKAPQRVNMVQFHQSYSYEDFIQGYRPNGVGFRRKDGIFYNFCQQAKEQPEKKYIFIIDEINRANLSKVFGEVMMLMEHDKRGENWSVPLTYSENDEERFYVPENVYIIGLMNTADRSLAVVDYALRRRFSFIDIEPGFDTPQFRNFLLNKKAEPSFVESLCQKMNELNQEISKEATILGKGFRIGHSYFCCGLEDGTSPDTQWLNEIVMTDIAPLLEEYFFDDPYKQQKWTNKLLGDS | 5.77 ± 0.24 h | 3.81 h | – | – | 4 ± 0.19 h | 3.13 ± 0.25 h | 6.02 ± 2.1 h | 8.15 ± 0.33 h | 4.41 ± 0.59 h | 5.12 ± 0.74 h | 6.46 ± 0.81 h | –
4 | MQDEYYMARALKLAQRGRFTTHPNPNVGCVIVKDGEIVGEGYHQRAGEPHAEVHALRMAGEKAKGATAYVTLEPCSHHGRTPPCCDALIAAGVARVVASMQDPNPQVAGRGLYRLQQAGIDVSHGLMMSEAEQLNKGFLKRMRTGFPYIQLKLGASLDGRTAMASGESQWITSPQARRDVQLLRAQSHAILTSSATVLADDPALTVRWSELDEQTQALYPQQNLRQPIRIVIDSQNRVTPVHRIVQQPGETWFARTQEDSREWPETVRTLLIPEHKGHLDLVVLMMQLGKQQINSIWVEAGPTLAGALLQAGLVDELIVYIAPKLLGSDARGLCTLPGLEKLADAPQFKFKEIRHVGPDVCLHLVGA | 5.45 ± 0.12 h | 4.76 ± 0.62 h | 5.07 ± 0.25 h | 5.1 ± 0.31 h | 4.57 ± 0.21 h | 2.9 ± 0.13 h | 6.76 ± 0.081 h | 10.1 ± 0.38 h | 4.98 ± 0.35 h | 5.904 ± 0.027 h | 11.7 ± 0.15 h | 8.77 ± 0.11 h
5 | MSQRGLEALLRPKSIAVIGASMKPNRAGYLMMRNLLAGGFNGPVLPVTPAWKAVLGVLAWPDIASLPFTPDLAVLCTNASRNLALLEELGEKGCKTCIILSAPASQHEDLRACALRHNMRLLGPNSLGLLAPWQGLNASFSPVPIKRGKLAFISQSAAVSNTILDWAQQRKMGFSYFIALGDSLDIDVDELLDYLARDSKTSAILLYLEQLSDARRFVSAARSASRNKPILVIKSGRSPAAQRLLNTTAGMDPAWDAAIQRAGLLRVQDTHELFSAVETLSHMRPLRGDRLMIISNGAAPAALALDALWSRNGKLATLSEETCQKLRDALPEHVAISNPLDLRDDASSEHYIKTLDILLHSQDFDALMVIHSPSAAAPATESAQVLIEAVKHHPRSKYVSLLTNWCGEHSSQEARRLFSEAGLPTYRTPEGTITAFMHMVEYRRNQKQLRETPALPSNLTSNTAEAHLLLQQAIAEGATSLDTHEVQPILQAYGMNTLPTWIASDSTEAVHIAEQIGYPVALKLRSPDIPHKSEVQGVMLYLRTANEVQQAANAIFDRVKMAWPQARVHGLLVQSMANRAGAQELRVVVEHDPVFGPLIMLGEGGVEWRPEDQAVVALPPLNMNLARYLVIQGIKSKKIRARSALRPLDVAGLSQLLVQVSNLIVDCPEIQRLDIHPLLASGSEFTALDVTLDISPFEGDNESRLAVRPYPHQLEEWVELKNGERCLFRPILPEDEPQLQQFISRVTKEDLYYRYFSEINEFTHEDLANMTQIDYDREMAFVAVRRIDQTEEILGVTRAISDPDNIDAEFAVLVRSDLKGLGLGRRLMEKLITYTRDHGLQRLNGITMPNNRGMVALARKLGFNVDIQLEEGIVGLTLNLAQREES | 5.32 ± 0.66 h | 5.3 ± 0.37 h | 4.54 ± 0.15 h | 4.46 ± 0.67 h | 4.92 ± 0.72 h | 3.28 ± 0.35 h | 6.133 ± 0.015 h | 12.2 ± 0.95 h | 5 ± 0.23 h | 6.35 ± 0.48 h | 14.1 ± 0.23 h | 7.46 ± 0.52 h
6 | MPSLSKEAALVHEALVARGLETPLRPPVHEMDNETRKSLIAGHMTEIMQLLNLDLADDSLMETPHRIAKMYVDEIFSGLDYANFPKITLIENKMKVDEMVTVRDITLTSTCEHHFVTIDGKATVAYIPKDSVIGLSKINRIVQFFAQRPQVQERLTQQILIALQTLLGTNNVAVSIDAVHYCVKARGIRDATSATTTTSLGGLFKSSQNTRHEFLRAVRHHN [P0A6T5] | 2.49 ± 0.12 h | 1.56 ± 0.27 h | 1.5 ± 0.11 h | 1.82 ± 0.16 h | 1.65 ± 0.21 h | 2.81 ± 0.23 h | 3.46 ± 0.48 h | 5.29 ± 0.21 h | 1.89 ± 0.34 h | 4.46 ± 0.21 h | 8.1 ± 0.27 h | 2.02 ± 0.14 h
7 | MTQKIEQSQRQERVAAWNRRAECDLAAFQNSPKQTYQAEKARDRKLCANLEEAIRRSGLQDGMTVSFHHAFRGGDLTVNMVMDVIAKMGFKNLTLASSSLSDCHAPLVEHIRQGVVTRIYTSGLRGPLAEEISRGLLAEPVQIHSHGGRVHLVQSGELNIDVAFLGVPSCDEFGNANGYTGKACCGSLGYAIVDADNAKQVVMLTEELLPYPHNPASIEQDQVDLIVKVDRVGDAAKIGAGATRMTTNPRELLIARSAADVIVNSGYFKEGFSMQTGTGGASLAVTRFLEDKMRSRDIRADFALGGITATMVDLHEKGLIRKLLDVQSFDSHAAQSLARNPNHIEISANQYANWGSKGASVDRLDVVVLSALEIDTQFNVNVLTGSDGVLRGASGGHCDTAIASALSIIVAPLVRGRIPTLVDNVLTCITPGSSVDILVTDHGIAVNPARPELAERLQEAGIKVVSIEWLRERARLLTGEPQPIEFTDRVVAVVRYRDGSVIDVVHQVKE | – | – | – | – | – | – | – | > 16 h | – | – | – | –
8 | MARIIVVTSGKGGVGKTTSSAAIATGLAQKGKKTVVIDFDIGLRNLDLIMGCERRVVYDFVNVIQGDATLNQALIKDKRTENLYILPASQTRDKDALTREGVAKVLDDLKAMDFEFIVCDSPAGIETGALMALYFADEAIITTNPEVSSVRDSDRILGILASKSRRAENGEEPIKEHLLLTRYNPGRVSRGDMLSMEDVLEILRIKLVGVIPEDQSVLRASNQGEPVILDINADAGKAYADTVERLLGEERPFRFIEEEKKGFLKRLFGG [P0AEZ3] | 5.31 ± 0.21 h | 5.22 ± 0.21 h | 5.442 ± 0.017 h | 5.66 ± 0.15 h | 4.87 ± 0.023 h | 2.94 ± 0.16 h | 5.54 ± 0.16 h | 10.1 ± 0.8 h | 5.17 ± 0.36 h | 4.93 ± 0.2 h | 9.29 ± 0.22 h | 9.98 ± 0.53 h
